Source: US20260001928A1 (CORTERIA PHARMACEUTICALS, priority 2022, published 2026)
*1 amine or outer side, *2 acyl side, *3 side chain or, on linkers, in order; H or OH if unused. Where no end group is shown, it is not given here. Side-chain parts run from the residue outwards. [ ]: non-standard residue; d: D form. The star is where a group is joined. C16 diacid = O=C(O)CCCCCCCCCCCCCCC(=O)*; γGlu = O=C(O)[C@H](CCC(=O)[*:2])N[*:1]; NMeI = CC[C@H](C)[C@H](NC)C(=O)O; αMeL = CC(C)C[C@](C)(N)C(=O)O; AEEA = NCCOCCOCC(=O)O; Aib = CC(C)(N)C(=O)O

T1: CRF1R receptor (UniProt P34998 24-415, limits assumed)
T1 sequence (looked up): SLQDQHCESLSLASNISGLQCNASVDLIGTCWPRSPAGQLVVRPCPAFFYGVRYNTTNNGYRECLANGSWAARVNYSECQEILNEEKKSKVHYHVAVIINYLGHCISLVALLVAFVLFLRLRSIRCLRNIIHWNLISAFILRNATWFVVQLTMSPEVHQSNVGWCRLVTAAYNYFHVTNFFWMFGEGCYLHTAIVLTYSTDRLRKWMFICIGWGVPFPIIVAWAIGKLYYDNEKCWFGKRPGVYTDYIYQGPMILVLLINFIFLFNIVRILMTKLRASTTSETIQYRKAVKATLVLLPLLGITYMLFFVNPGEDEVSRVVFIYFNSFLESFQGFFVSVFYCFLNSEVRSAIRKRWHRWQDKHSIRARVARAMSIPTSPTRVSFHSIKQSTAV

B1: SEQ ID NO 50 (peptide)
peptide: Ac-IVLSLD[dV]PIK[αMeL]K([γGlu-C16 diacid])KILLEQEKQKKQREQAETNVQILAQV-NH2
SMILES: CC[C@H](C)[C@H](NC(C)=O)C(=O)N[C@H](C(=O)N[C@@H](CC(C)C)C(=O)N[C@@H](CO)C(=O)N[C@@H](CC(C)C)C(=O)N[C@@H](CC(=O)O)C(=O)N[C@@H](C(=O)N1CCC[C@H]1C(=O)N[C@H](C(=O)N[C@@H](CCCCN)C(=O)N[C@@](C)(CC(C)C)C(=O)N[C@@H](CCCCNC(=O)CC[C@H](NC(=O)CCCCCCCCCCCCCCC(=O)O)C(=O)O)C(=O)N[C@@H](CCCCN)C(=O)N[C@H](C(=O)N[C@@H](CC(C)C)C(=O)N[C@@H](CC(C)C)C(=O)N[C@@H](CCC(=O)O)C(=O)N[C@@H](CCC(N)=O)C(=O)N[C@@H](CCC(=O)O)C(=O)N[C@@H](CCCCN)C(=O)N[C@@H](CCC(N)=O)C(=O)N[C@@H](CCCCN)C(=O)N[C@@H](CCCCN)C(=O)N[C@@H](CCC(N)=O)C(=O)N[C@@H](CCCNC(=N)N)C(=O)N[C@@H](CCC(=O)O)C(=O)N[C@@H](CCC(N)=O)C(=O)N[C@@H](C)C(=O)N[C@@H](CCC(=O)O)C(=O)N[C@H](C(=O)N[C@@H](CC(N)=O)C(=O)N[C@H](C(=O)N[C@@H](CCC(N)=O)C(=O)N[C@H](C(=O)N[C@@H](CC(C)C)C(=O)N[C@@H](C)C(=O)N[C@@H](CCC(N)=O)C(=O)N[C@H](C(N)=O)C(C)C)[C@@H](C)CC)C(C)C)[C@@H](C)O)[C@@H](C)CC)[C@@H](C)CC)C(C)C)C(C)C
B2: SEQ ID NO 44 (peptide)
peptide: Ac-IVLSLD[dV]PIK[αMeL]K([γGlu-C16 diacid])KILLEQEKQKKQREQAETN[Aib]QILAQV-NH2
SMILES: CC[C@H](C)[C@H](NC(C)=O)C(=O)N[C@H](C(=O)N[C@@H](CC(C)C)C(=O)N[C@@H](CO)C(=O)N[C@@H](CC(C)C)C(=O)N[C@@H](CC(=O)O)C(=O)N[C@@H](C(=O)N1CCC[C@H]1C(=O)N[C@H](C(=O)N[C@@H](CCCCN)C(=O)N[C@@](C)(CC(C)C)C(=O)N[C@@H](CCCCNC(=O)CC[C@H](NC(=O)CCCCCCCCCCCCCCC(=O)O)C(=O)O)C(=O)N[C@@H](CCCCN)C(=O)N[C@H](C(=O)N[C@@H](CC(C)C)C(=O)N[C@@H](CC(C)C)C(=O)N[C@@H](CCC(=O)O)C(=O)N[C@@H](CCC(N)=O)C(=O)N[C@@H](CCC(=O)O)C(=O)N[C@@H](CCCCN)C(=O)N[C@@H](CCC(N)=O)C(=O)N[C@@H](CCCCN)C(=O)N[C@@H](CCCCN)C(=O)N[C@@H](CCC(N)=O)C(=O)N[C@@H](CCCNC(=N)N)C(=O)N[C@@H](CCC(=O)O)C(=O)N[C@@H](CCC(N)=O)C(=O)N[C@@H](C)C(=O)N[C@@H](CCC(=O)O)C(=O)N[C@H](C(=O)N[C@@H](CC(N)=O)C(=O)NC(C)(C)C(=O)N[C@@H](CCC(N)=O)C(=O)N[C@H](C(=O)N[C@@H](CC(C)C)C(=O)N[C@@H](C)C(=O)N[C@@H](CCC(N)=O)C(=O)N[C@H](C(N)=O)C(C)C)[C@@H](C)CC)[C@@H](C)O)[C@@H](C)CC)[C@@H](C)CC)C(C)C)C(C)C
B3: SEQ ID NO 148 (peptide)
peptide: IVLSLD[dV]PIKLK([AEEA-AEEA-γGlu-C16 diacid])QILLKQERQKKQREQAEKNKQILEQV-NH2
B4: SEQ ID NO 16 (peptide)
peptide: Ac-IVLSLD[dV]PIKLK([γGlu-C16 diacid])QILLKQERQKKQREQAEKN[Aib]QILEQV-NH2
SMILES: CC[C@H](C)[C@H](NC(C)=O)C(=O)N[C@H](C(=O)N[C@@H](CC(C)C)C(=O)N[C@@H](CO)C(=O)N[C@@H](CC(C)C)C(=O)N[C@@H](CC(=O)O)C(=O)N[C@@H](C(=O)N1CCC[C@H]1C(=O)N[C@H](C(=O)N[C@@H](CCCCN)C(=O)N[C@@H](CC(C)C)C(=O)N[C@@H](CCCCNC(=O)CC[C@H](NC(=O)CCCCCCCCCCCCCCC(=O)O)C(=O)O)C(=O)N[C@@H](CCC(N)=O)C(=O)N[C@H](C(=O)N[C@@H](CC(C)C)C(=O)N[C@@H](CC(C)C)C(=O)N[C@@H](CCCCN)C(=O)N[C@@H](CCC(N)=O)C(=O)N[C@@H](CCC(=O)O)C(=O)N[C@@H](CCCNC(=N)N)C(=O)N[C@@H](CCC(N)=O)C(=O)N[C@@H](CCCCN)C(=O)N[C@@H](CCCCN)C(=O)N[C@@H](CCC(N)=O)C(=O)N[C@@H](CCCNC(=N)N)C(=O)N[C@@H](CCC(=O)O)C(=O)N[C@@H](CCC(N)=O)C(=O)N[C@@H](C)C(=O)N[C@@H](CCC(=O)O)C(=O)N[C@@H](CCCCN)C(=O)N[C@@H](CC(N)=O)C(=O)NC(C)(C)C(=O)N[C@@H](CCC(N)=O)C(=O)N[C@H](C(=O)N[C@@H](CC(C)C)C(=O)N[C@@H](CCC(=O)O)C(=O)N[C@@H](CCC(N)=O)C(=O)N[C@H](C(N)=O)C(C)C)[C@@H](C)CC)[C@@H](C)CC)[C@@H](C)CC)C(C)C)C(C)C
B5: SEQ ID NO 65 (peptide)
peptide: [NMeI]VLSLD[dV]PIK[αMeL]K([γGlu-C16 diacid])KILLEQEKQKKQREQAETN[Aib]QILAQV-NH2
modifications: N-terminus assumed
SMILES: CC[C@H](C)[C@H](NC)C(=O)N[C@H](C(=O)N[C@@H](CC(C)C)C(=O)N[C@@H](CO)C(=O)N[C@@H](CC(C)C)C(=O)N[C@@H](CC(=O)O)C(=O)N[C@@H](C(=O)N1CCC[C@H]1C(=O)N[C@H](C(=O)N[C@@H](CCCCN)C(=O)N[C@@](C)(CC(C)C)C(=O)N[C@@H](CCCCNC(=O)CC[C@H](NC(=O)CCCCCCCCCCCCCCC(=O)O)C(=O)O)C(=O)N[C@@H](CCCCN)C(=O)N[C@H](C(=O)N[C@@H](CC(C)C)C(=O)N[C@@H](CC(C)C)C(=O)N[C@@H](CCC(=O)O)C(=O)N[C@@H](CCC(N)=O)C(=O)N[C@@H](CCC(=O)O)C(=O)N[C@@H](CCCCN)C(=O)N[C@@H](CCC(N)=O)C(=O)N[C@@H](CCCCN)C(=O)N[C@@H](CCCCN)C(=O)N[C@@H](CCC(N)=O)C(=O)N[C@@H](CCCNC(=N)N)C(=O)N[C@@H](CCC(=O)O)C(=O)N[C@@H](CCC(N)=O)C(=O)N[C@@H](C)C(=O)N[C@@H](CCC(=O)O)C(=O)N[C@H](C(=O)N[C@@H](CC(N)=O)C(=O)NC(C)(C)C(=O)N[C@@H](CCC(N)=O)C(=O)N[C@H](C(=O)N[C@@H](CC(C)C)C(=O)N[C@@H](C)C(=O)N[C@@H](CCC(N)=O)C(=O)N[C@H](C(N)=O)C(C)C)[C@@H](C)CC)[C@@H](C)O)[C@@H](C)CC)[C@@H](C)CC)C(C)C)C(C)C
B6: SEQ ID NO 53 (peptide)
peptide: Ac-IVLSLD[dV]PIK[αMeL]K([γGlu-C16 diacid])KILLEQEKQKKQREQAETDKQILAQV-NH2
SMILES: CC[C@H](C)[C@H](NC(C)=O)C(=O)N[C@H](C(=O)N[C@@H](CC(C)C)C(=O)N[C@@H](CO)C(=O)N[C@@H](CC(C)C)C(=O)N[C@@H](CC(=O)O)C(=O)N[C@@H](C(=O)N1CCC[C@H]1C(=O)N[C@H](C(=O)N[C@@H](CCCCN)C(=O)N[C@@](C)(CC(C)C)C(=O)N[C@@H](CCCCNC(=O)CC[C@H](NC(=O)CCCCCCCCCCCCCCC(=O)O)C(=O)O)C(=O)N[C@@H](CCCCN)C(=O)N[C@H](C(=O)N[C@@H](CC(C)C)C(=O)N[C@@H](CC(C)C)C(=O)N[C@@H](CCC(=O)O)C(=O)N[C@@H](CCC(N)=O)C(=O)N[C@@H](CCC(=O)O)C(=O)N[C@@H](CCCCN)C(=O)N[C@@H](CCC(N)=O)C(=O)N[C@@H](CCCCN)C(=O)N[C@@H](CCCCN)C(=O)N[C@@H](CCC(N)=O)C(=O)N[C@@H](CCCNC(=N)N)C(=O)N[C@@H](CCC(=O)O)C(=O)N[C@@H](CCC(N)=O)C(=O)N[C@@H](C)C(=O)N[C@@H](CCC(=O)O)C(=O)N[C@H](C(=O)N[C@@H](CC(=O)O)C(=O)N[C@@H](CCCCN)C(=O)N[C@@H](CCC(N)=O)C(=O)N[C@H](C(=O)N[C@@H](CC(C)C)C(=O)N[C@@H](C)C(=O)N[C@@H](CCC(N)=O)C(=O)N[C@H](C(N)=O)C(C)C)[C@@H](C)CC)[C@@H](C)O)[C@@H](C)CC)[C@@H](C)CC)C(C)C)C(C)C
B7: SEQ ID NO 46 (peptide)
peptide: Ac-VLSLD[dV]PIK[αMeL]K([γGlu-C16 diacid])KILLEQEKQKKQREQAETN[Aib]QILAQV-NH2
SMILES: CC[C@H](C)[C@H](NC(=O)[C@H](CCC(N)=O)NC(=O)C(C)(C)NC(=O)[C@H](CC(N)=O)NC(=O)[C@@H](NC(=O)[C@H](CCC(=O)O)NC(=O)[C@H](C)NC(=O)[C@H](CCC(N)=O)NC(=O)[C@H](CCC(=O)O)NC(=O)[C@H](CCCNC(=N)N)NC(=O)[C@H](CCC(N)=O)NC(=O)[C@H](CCCCN)NC(=O)[C@H](CCCCN)NC(=O)[C@H](CCC(N)=O)NC(=O)[C@H](CCCCN)NC(=O)[C@H](CCC(=O)O)NC(=O)[C@H](CCC(N)=O)NC(=O)[C@H](CCC(=O)O)NC(=O)[C@H](CC(C)C)NC(=O)[C@H](CC(C)C)NC(=O)[C@@H](NC(=O)[C@H](CCCCN)NC(=O)[C@H](CCCCNC(=O)CC[C@H](NC(=O)CCCCCCCCCCCCCCC(=O)O)C(=O)O)NC(=O)[C@](C)(CC(C)C)NC(=O)[C@H](CCCCN)NC(=O)[C@@H](NC(=O)[C@@H]1CCCN1C(=O)[C@H](NC(=O)[C@H](CC(=O)O)NC(=O)[C@H](CC(C)C)NC(=O)[C@H](CO)NC(=O)[C@H](CC(C)C)NC(=O)[C@@H](NC(C)=O)C(C)C)C(C)C)[C@@H](C)CC)[C@@H](C)CC)[C@@H](C)O)C(=O)N[C@@H](CC(C)C)C(=O)N[C@@H](C)C(=O)N[C@@H](CCC(N)=O)C(=O)N[C@H](C(N)=O)C(C)C

Columns and labels:
[1] = target: human corticotropin-releasing factor 2a (CRF2a receptor) (human), Q13324; test: cell-based or functional assay
human corticotropin-releasing factor 2a (CRF2a receptor) (human), Q13324, sequence (Q13324 20-411): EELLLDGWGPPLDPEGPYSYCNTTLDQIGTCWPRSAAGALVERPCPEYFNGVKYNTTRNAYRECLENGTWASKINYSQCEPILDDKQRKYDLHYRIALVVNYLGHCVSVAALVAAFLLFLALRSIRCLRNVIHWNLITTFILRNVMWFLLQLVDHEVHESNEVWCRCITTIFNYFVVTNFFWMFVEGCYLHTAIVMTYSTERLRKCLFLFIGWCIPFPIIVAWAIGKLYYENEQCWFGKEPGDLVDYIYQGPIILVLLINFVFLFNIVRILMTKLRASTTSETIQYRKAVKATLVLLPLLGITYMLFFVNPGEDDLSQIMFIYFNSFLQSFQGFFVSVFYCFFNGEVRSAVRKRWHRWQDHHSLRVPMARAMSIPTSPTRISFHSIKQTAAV

CRF1R receptor = target: T1, CRF1R receptor; test: cell-based or functional assay

Row | Binder | EC50 [nM] (cAMP) [1] | Emax (% I) (CRF1R receptor) | EC50 (CRF1R receptor)
1 | B1 | 0.26 nM | 9% | –
2 | B2 | 0.25 nM | 5% | –
3 | B3 | 0.65 nM | 13% | 100 nM
4 | B4 | 0.13 nM | 47% | 185 nM
5 | B5 | 0.1 nM | 10% | –
6 | B6 | 8.05 nM | 5% | –
7 | B7 | 0.7 nM | 6% | –
